Measured values: the nanobody polyreactivity screen of Harvey et al. (2022)

Assay: yeast display, Sf9 membrane polyspecificity reagent, FACS + sequencing; frameworks hold sequencing errors
Summary of the method: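 Nanobodies from a synthetic yeast display library (Saccharomyces cerevisiae BJ5465), induced 36–48 hours with galactose, were stained 1 hour at 4 °C with 10% biotinylated, detergent-solubilized Sf9 membrane reagent, enriched on streptavidin microbeads, then FACS-sorted. Anti-HA (expression) and streptavidin (reagent binding) fluorescence set low and high (top ~1%) gates. Polyreactivity labels come from the gate of origin. Genes were colony-PCR amplified, MiSeq 2 × 250 sequenced and filtered by CDR length.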
For “QVQLVESGGGLVQAGGSLRLSCAASGFTFDFYAMGWYRQAPGKERELVADISSSDGSTYADSVKGRFTISRDNAKNTVYLQMNSLKPEDTAVYYCAADYDNQYDFSLDDEYWGQGTQVTVSS”, the “polyreactivity (PSR sort gate)” value was “low polyreactivity”.
In the case of “QVQLVESGGGLVQAGGSLRLSCAASGFTFDGNAMGWYRQAPGKERELVATITSGGNTKYADSVKGRFTISRDNAKNTVYFQMNSLKPEDTAVYYCAAAQYNYRRFNYWGQGTQVTVSS”, the “polyreactivity (PSR sort gate)” value is reported as “low polyreactivity”.
For “QVQLVESGGGLVQAGGSLRLSCAASGFTFDINAMGWYRQAPGKERELVADITSGGTTDYADSVKGRFTISRDNAKNTVYLQMNSLKPEDTADYYCAAEVLDAYYGDDYWGQGTQVTVSS”, the “polyreactivity (PSR sort gate)” value was “high polyreactivity”.
With “QVQLVESGGGLVQAGGSLRLSCAASGFTFDIYGMGWYRQAPGKERELVASITSRSARTYYADSVKGRFTISRYNAKNTVYLQMNSLKPEDTAVYYCAADTTIKRKYLAIRGYWGQGTQVTVSS” the “polyreactivity (PSR sort gate)” value was “high polyreactivity”.
In the case of “QVQLVESGGGLVQAGGSLRLSCAASGFTFDKNVMGWYRQAPGKERELVAAISVRGGTTYYADSVKGRFTISRDNAMNTVYLQMNSLKPEDTAVYYCAARAYGPPARYDSWGQGTQVTVSS”, the “polyreactivity (PSR sort gate)” value is reported as “low polyreactivity”.
For “QVQLVESGGGLVQAGGSLRLSCAASGFTFDKYAMGWYRQAPGKERELVAAISSSGGSTYYADSVKGRFTISRDNAKNTVYLQMNSLKPEDTAVYYCATGRIRWYARYDYWGHGTQVTVSS”, the “polyreactivity (PSR sort gate)” value was “high polyreactivity”.
In the case of “QVQLVESGGGLVQAGGSLRLSCAASGFTFDQNAMGWYRQAPGKERELVAAISVGGGSTYYADSVKGRFTISRDNAKNTVYLQMNSLKPEDTAVYYCAASYVYPASFHYYYWGQGTQVTVSS”, the “polyreactivity (PSR sort gate)” value is reported as “high polyreactivity”.
For “QVQLVESGGGLVQAGGSLRLSCAASGFTFDRNAMGWYRQAPGKERELVATISQSGTNTYYADSVKGRFTISRDNAKNTVYLQMNSLKPEDTAVYYCNARYIFYRYDYWGQGTQVTVSS”, the “polyreactivity (PSR sort gate)” value was “low polyreactivity”.
With “QVQLVESGGGLVQAGGSLRLSCAASGFTFDSYAMGWYRQAPGNDRELVAAISYRGGSTYYADSVKGRFSISRDNAKNTVYLQMNSLKPEDTAVFYCAARSPSAAYGSYGVYSWGQGTQVTVSS” the “polyreactivity (PSR sort gate)” value was “high polyreactivity”.
With “QVQLVESGGGLVQAGGSLRLSCAASGFTFDTNAMGWYRPAPGKERELVAAISRIGGRTYADSVKGRFTISRDNAKNTVYLQMNSLKPEDTAVYYCAADTTWYPYGYDSWGQGTQVTVSS” the “polyreactivity (PSR sort gate)” value was “low polyreactivity”.
In the case of “QVQLVESGGGLVQAGGSLRLSCAASGFTFDWYAMGWYRQAPGKERELVAAISSSGRTNYADSVKGRFTISRDNAKNTVYLQMNSLKPEDTAVYYCNRDYPYIWHKGARYWHENDYWGQGTQVTVSS”, the “polyreactivity (PSR sort gate)” value is reported as “low polyreactivity”.
For “QVQLVESGGGLVQAGGSLRLSCAASGFTFDYNAMGWSRQAPGKERELVAVISSSGSRTYYADSVKGRFTISRDNAKNTVYLQMNSLKPEDTAVYYCAAARIGTRDYWGQGTQVTVSS”, the “polyreactivity (PSR sort gate)” value was “high polyreactivity”.
For “QVQLVESGGGLVQAGGSLRLSCAASGFTFDYYAMGWYRQAPGKERELVAAISSSGGSTYYADSVKGRFTISRDNAKNTVYLQMNSLKPADTAVYYCGTGHSKKYDYWGQGTQVTVSS”, the “polyreactivity (PSR sort gate)” value was “high polyreactivity”.
For “QVQLVESGGGLVQAGGSLRLSCAASGFTFDYYAMGWYRQAPGKERELVATITSGGRTNYADSVKGRFTLSRDNAKNTVYLQMNSLNPEDTAVYYCAVDWWNVEYFYSATSGDYWGQGTQVTVSS”, the “polyreactivity (PSR sort gate)” value was “low polyreactivity”.
For “QVQLVESGGGLVQAGGSLRLSCAASGFTFEGYAMGWYRQAPGKERELVAAISYSGSSTYYADSVKGRFTISRDNAKNTVYLQMNSLKPEDTAVYYCNARRHWYSAWGYDYWGQGTQVTVSS”, the “polyreactivity (PSR sort gate)” value was “high polyreactivity”.
For “QVQLVESGGGLVQAGGSLRLSCAASGFTFEKNAMGWYGQAPGKERELVAAISRGGSTYADSVKGRFTISRDNAKTTVDLQMNSLKPEDTAVYYCAADTVYIFSSAINGEFGYWGQGTQVTVSS”, the “polyreactivity (PSR sort gate)” value was “low polyreactivity”.
For “QVQLVESGGGLVQAGGSLRLSCAASGFTFERYAMGWYRQAPGKERELVAAITGSGGSTYYADSVKGRFTISRDNAKTTVYLQMNSLKPEDTAVYYCADYSAYYGCDYWGQGTQVTVSS”, the “polyreactivity (PSR sort gate)” value was “low polyreactivity”.
For “QVQLVESGGGLVQAGGSLRLSCAASGFTFERYTMGWYRPAPGKERELVATISRRSGRTSYADSVKGRFTISRDNAKNTVYLQMNSLKPEDTAVYYCAVDDAYPDRYDYWGQGTQVTVSS”, the “polyreactivity (PSR sort gate)” value was “high polyreactivity”.
With “QVQLVESGGGLVQAGGSLRLSCAASGFTFERYTMGWYRQAPGKERELVATISRRSGRTSYADSVKGRFTISRDNAKNSVYLQMNSLKPEDTAVYYCAVDDAYPDRYDYWGQGTQVTVSS” the “polyreactivity (PSR sort gate)” value was “high polyreactivity”.
For “QVQLVESGGGLVQAGGSLRLSCAASGFTFERYTMGWYRQAPGKERELVATISRRSGRTSYADSVKGRFTISRDNAKNTVYLQMNSLKPEDTAVYYCAVDDAYPDRYDYWGQGTQVTVSS”, the “polyreactivity (PSR sort gate)” value was “high polyreactivity”.
For “QVQLVESGGGLVQAGGSLRLSCAASGFTFESNAMGWYRQAPGKERELVAAITSSGGRTYYADSVKGRFTISRDNAKNTVYLQMNSLKPEDTAVYYCAATGKAPRESGGVYSMDWGQGTQVTVSS”, the “polyreactivity (PSR sort gate)” value was “low polyreactivity”.
For “QVQLVESGGGLVQAGGSLRLSCAASGFTFEVYAMGWYIQAPGKERELVAAITSSGGRTYYADSVKGRFTISRDNAKNTVYLQMNSLKPEDTAVYYCNARSKQPVYPYVQSLNYWGQGTQVTVSS”, the “polyreactivity (PSR sort gate)” value was “high polyreactivity”.
With “QVQLVESGGGLVQAGGSLRLSCAASGFTFEYNALGWYRQAPGKERELVAAISSGGRTNYADSVKGRFTISRDNAKNTVYLQMNSLKPEDTAVYYCAKRLGVRPAFYYWGQGTLVTVSS” the “polyreactivity (PSR sort gate)” value was “high polyreactivity”.
For “QVQLVESGGGLVQAGGSLRLSCAASGFTFEYNAMGWYRQAPGKERELVAVITYRGGSTYYADSVKGRFTISRDHAKNTVYLQMNSLKPEDTAVYYCAARLSSNYWGLKRWGYGYWGQGTQVTVSS”, the “polyreactivity (PSR sort gate)” value was “high polyreactivity”.
With “QVQLVESGGGLVQAGGSLRLSCAASGFTFEYYAMGWFRQAPGKERELVATITSGGSTYYADSVKGRFTISRDNAKNTVYLQMNSLKPEDTAVYDCNTSSPWIEDYWGQGTQVTVSS” the “polyreactivity (PSR sort gate)” value was “low polyreactivity”.
With “QVQLVESGGGLVQAGGSLRLSCAASGFTFEYYAMGWYRQAPGKERELVAAIDTGGSTNYADSVKGRFTISRDNAKNTVYLQMNSLKPEDTAVYYCAADWSWWDGEDYHFEYDYWGQGTQVTVSS” the “polyreactivity (PSR sort gate)” value was “low polyreactivity”.
In the case of “QVQLVESGGGLVQAGGSLRLSCAASGFTFEYYPMGWYRQAPGKERELVADITTSSAGTYYADSVKGRFTISRDNAKNTFYLQMNSLKPEDTAVYYCNRDALNTGEDLDYWGQGTQVSVSS”, the “polyreactivity (PSR sort gate)” value is reported as “low polyreactivity”.
In the case of “QVQLVESGGGLVQAGGSLRLSCAASGFTFFHYAMGWYRQAPGKERELVAAINTRGSRTYYADSVKGRFTISRDNAKNTVYLQMNSLKPEDNAVYYCAAEDYWYDFDYWGQGTQVTVSS”, the “polyreactivity (PSR sort gate)” value is reported as “high polyreactivity”.
With “QVQLVESGGGLVQAGGSLRLSCAASGFTFFIYVMGWYRQAPGKEREFVAAISSSGDSTYYADSVKGRFTISRDNAKNTVYLQMNSLKPEDTAVYYCAADRIRDLEFDYWGQGTQVTVSS” the “polyreactivity (PSR sort gate)” value was “low polyreactivity”.
In the case of “QVQLVESGGGLVQAGGSLRLSCAASGFTFFLYAMGWYRQAPGKEMELVAAIHSRGGSTYYADSVKGRFTISRDNAKNTVSLQMNSLKPEDTAVYYCAAYIPRSSWGYDYWGQGTQVTVSS”, the “polyreactivity (PSR sort gate)” value is reported as “high polyreactivity”.
In the case of “QVQLVESGGGLVQAGGSLRLSCAASGFTFFNYAMAWYRQAPGKERELVAAISSNGGRTYYADSVKGRFTISRDNAKNTVYLQMNSLKPEDTAVYYCATLYYGRVDYDYWGQGTQVTVSS”, the “polyreactivity (PSR sort gate)” value is reported as “high polyreactivity”.
In the case of “QVQLVESGGGLVQAGGSLRLSCAASGFTFFRYAMGWYRQAPGKERELVAAISWSGGRTYYADSVKGRFTISRDNAKNTVYLQMNSLKPEDTAVYYCAVDYYRSGLHYDSWGQGTQVTVSS”, the “polyreactivity (PSR sort gate)” value is reported as “high polyreactivity”.
With “QVQLVESGGGLVQAGGSLRLSCAASGFTFFRYAMGWYRQAPGKERELVATITSGGTTNYADSVKGRFTISRDNAKNTVYLQMNSLKPEDTAVYYCAARTYPSYYVTFEYWGQGTQVTVSS” the “polyreactivity (PSR sort gate)” value was “low polyreactivity”.
With “QVQLVESGGGLVQAGGSLRLSCAASGFTFFSNAMGWYRQAPGKDRELVAAITSSGGSTYADSVKGRFTISRDNAKNTVYLQMNSLKPEDTAVYYCAADAQAPPCGFKEYDYWGQGTQVTVSS” the “polyreactivity (PSR sort gate)” value was “low polyreactivity”.
With “QVQLVESGGGLVQAGGSLRLSCAASGFTFFSYAMGWYRQAPGKERELVATITWSGGTYYADSVKGRFTISRDNAKNTVYVQMNSLKPEDTAVYYCNARRHYRRYSYRHNYWGQGTQVTVSS” the “polyreactivity (PSR sort gate)” value was “high polyreactivity”.
With “QVQLVESGGGLVQAGGSLRLSCAASGFTFFTNAMGWYRQAPGKERELVATITSNGSTNYADSVKGRFTISRDNAKNTVYLQMISLKPEDTAVYYCAADQDSVSMDYWGQGTQVTVSS” the “polyreactivity (PSR sort gate)” value was “low polyreactivity”.
In the case of “QVQLVESGGGLVQAGGSLRLSCAASGFTFFTYAMGWYRQAPGKDRQLVAAITTGGSTNYADSVKGRFTISRDNAKINVYLEMNSLKPEDTAVYYCAAQRVSVLLFVRHDYWGQGTQVTVSS”, the “polyreactivity (PSR sort gate)” value is reported as “low polyreactivity”.
With “QVQLVESGGGLVQAGGSLRLSCAASGFTFFVYAMGWYRQAPGKEREGVAVITSGGTTNYADSVKGRFTISRDNAKNTVYLQMNSLKPEDTAVYYCATDNGGIPKYVPYDYWGQGTQVTVSS” the “polyreactivity (PSR sort gate)” value was “high polyreactivity”.
With “QVQLVESGGGLVQAGGSLRLSCAASGFTFFWYAMGWYRQAPGKERELVAGITYRGGSTYYADSVKGRFTISRDNAKNTVYLQMNSLKPEDTAVYYCNADVVTKHISAWWDRYYRRYYYWGQGTQVTVSS” the “polyreactivity (PSR sort gate)” value was “low polyreactivity”.
In the case of “QVQLVESGGGLVQAGGSLRLSCAASGFTFFYNAMGWYSQAPGKESELVASITVSTSGTDYADSVKGRFTISRDNAKNTVYLQMNSLKPEDTAVYYCATDLVFVYSDLQDTAYYWGQGTQVTVSS”, the “polyreactivity (PSR sort gate)” value is reported as “low polyreactivity”.
With “QVQLVESGGGLVQAGGSLRLSCAASGFTFGANDMGRYIQAPGKERELVATISSSGGTTYYADSVKGRFTISRDNAKYTVYLQMNSLKPEDTAVYYCAAKGLFTGRVSRYADDHWGQGTEVTVSS” the “polyreactivity (PSR sort gate)” value was “low polyreactivity”.
With “QVQLVESGGGLVQAGGSLRLSCAASGFTFGAYAMGWSRQAPGKERELVASISWSGGSTYYADSVKGRFTISRDNAKNTVYLQMNSLKPEDTAVYDCNKDFVYPDDDGLFDYWGQGTQVTVSS” the “polyreactivity (PSR sort gate)” value was “low polyreactivity”.
In the case of “QVQLVESGGGLVQAGGSLRLSCAASGFTFGAYARGWYRQAPGKERELVAAISSRGGSTYYADSVKGRFTISRDNAKNTVYLQKNSLKPEDTAVYYCAANSYRRTGYNYWGQGTQVSVSS”, the “polyreactivity (PSR sort gate)” value is reported as “high polyreactivity”.
